Drawing on paper PMC13397619, this text covers enrichment for 58 variants.

First the molecules themselves.
B1: NLV3 TCR beta chain (CDR3β only) (parent)
chain: ASSPTGGSPSPLH

In this assay the parent is B1. The experiment in a line: T-Switch: Jurkat TCRβ−/− cells expressing a CDR3 saturation-mutagenesis library, stained with two peptide-HLA-A*02:01 tetramers (original and novel peptide) plus anti-CD3, FACS-sorted into four gates, gDNA sequenced. Conditions: tetramers 1 µg/mL, 30 min on ice, SP, DP and SW gates expanded about 10 days between rounds ('two to three rounds of selection' in the Methods), unresolved parent, parent is a CDR3 fragment, scale: fold enrichment, numbering: sequential-on-construct, sequence starts at 1.

[1] abbreviates: with both tetramers (double-negative gate, binds neither): HLA-A*02:01 with … and with …, gate DN: OPPOSITE: higher = more of the variant in the gate that binds neither peptide = LESS binding (or no expression; inferred). Fold enrichment of the CDR3 variant in one FACS gate of a two-tetram.
[2] abbreviates: with both tetramers (double-positive gate): HLA-A*02:01 with … and with …, gate DP: higher = more of the variant in the gate that binds both peptides. Fold enrichment of the CDR3 variant in one FACS gate of a two-tetramer stain. SP/DP/SW gates were expanded and re-sorted bef.

For the variant […] (CDR3 as printed); S3V derived by comparing it with the table's wild-type CDR3 ASSPTGGSPSPLH, the enrichment was 0.951 under setting [1] and 0 under setting [2].

In the case of […] (CDR3 as printed); S10A derived by comparing it with the table's wild-type CDR3 ASSPTGGSPSPLH, the enrichment reads like this: under setting [1], 0.624; under setting [2], 0.

Take […] (CDR3 as printed); P11Y derived by comparing it with the table's wild-type CDR3 ASSPTGGSPSPLH: the enrichment was determined as 0.787 under setting [1] and 0 under setting [2].

For […] (CDR3 as printed); S8V derived by comparing it with the table's wild-type CDR3 ASSPTGGSPSPLH, the enrichment by setting is: under setting [1], 0.756; under setting [2], 0.

With […] (CDR3 as printed); S2P derived by comparing it with the table's wild-type CDR3 ASSPTGGSPSPLH, the enrichment is, setting by setting: under setting [1], 0.795; under setting [2], 0.

For the variant […] (CDR3 as printed); A1C derived by comparing it with the table's wild-type CDR3 ASSPTGGSPSPLH, the enrichment came out at 1.24 under setting [1] and 0 under setting [2].

Regarding […] (CDR3 as printed); T5C derived by comparing it with the table's wild-type CDR3 ASSPTGGSPSPLH, the enrichment amounted to 1.08 under setting [1] and 0 under setting [2].

Regarding […] (CDR3 as printed); S3H derived by comparing it with the table's wild-type CDR3 ASSPTGGSPSPLH, the enrichment was determined as 0.931 under setting [1] and 0 under setting [2].

As for […] (CDR3 as printed); G7A derived by comparing it with the table's wild-type CDR3 ASSPTGGSPSPLH, the enrichment runs as follows: under setting [1], 0.658; under setting [2], 0.

Take […] (CDR3 as printed); P4G derived by comparing it with the table's wild-type CDR3 ASSPTGGSPSPLH: the enrichment reads like this: under setting [1], 0.753; under setting [2], 0.

Regarding […] (CDR3 as printed); S8Y derived by comparing it with the table's wild-type CDR3 ASSPTGGSPSPLH, the enrichment by setting is: under setting [1], 0.351; under setting [2], 0.

With […] (CDR3 as printed); G6Q derived by comparing it with the table's wild-type CDR3 ASSPTGGSPSPLH, the enrichment is 1.2 under setting [1] and 0 under setting [2].

For […] (CDR3 as printed); L12M derived by comparing it with the table's wild-type CDR3 ASSPTGGSPSPLH, the enrichment runs as follows: under setting [1], 0.583; under setting [2], 0.

For the variant […] (CDR3 as printed); G6W derived by comparing it with the table's wild-type CDR3 ASSPTGGSPSPLH, the enrichment is, setting by setting: under setting [1], 1.44; under setting [2], 0.

On to […] (CDR3 as printed); S8I derived by comparing it with the table's wild-type CDR3 ASSPTGGSPSPLH, for which the enrichment is 1.23 under setting [1] and 0 under setting [2].

[…] (CDR3 as printed); P9F derived by comparing it with the table's wild-type CDR3 ASSPTGGSPSPLH: the enrichment reads like this: under setting [1], 0.851; under setting [2], 0.

With […] (CDR3 as printed); A1L derived by comparing it with the table's wild-type CDR3 ASSPTGGSPSPLH, the enrichment by setting is: under setting [1], 0.861; under setting [2], 0.

Consider […] (CDR3 as printed); P11A derived by comparing it with the table's wild-type CDR3 ASSPTGGSPSPLH, for which the enrichment is, setting by setting: under setting [1], 0.423; under setting [2], 0.

Regarding […] (CDR3 as printed); S3Q derived by comparing it with the table's wild-type CDR3 ASSPTGGSPSPLH, the enrichment turned out to be 1.09 under setting [1] and 0 under setting [2].

In the case of […] (CDR3 as printed); G7W derived by comparing it with the table's wild-type CDR3 ASSPTGGSPSPLH, the enrichment under setting [1] came out at 1.22 and the enrichment under setting [2] stood at 0.

In the case of […] (CDR3 as printed); S2G derived by comparing it with the table's wild-type CDR3 ASSPTGGSPSPLH, the enrichment reads like this: under setting [1], 0.981; under setting [2], 0.

[…] (CDR3 as printed); P9C derived by comparing it with the table's wild-type CDR3 ASSPTGGSPSPLH: the enrichment was determined as 0.869 under setting [1] and 0 under setting [2].

As to […] (CDR3 as printed); P9L derived by comparing it with the table's wild-type CDR3 ASSPTGGSPSPLH, the enrichment reads like this: under setting [1], 1.2; under setting [2], 0.

Consider […] (CDR3 as printed); T5F derived by comparing it with the table's wild-type CDR3 ASSPTGGSPSPLH, for which the enrichment worked out at 0.464 under setting [1] and 0 under setting [2].

[…] (CDR3 as printed); P9R derived by comparing it with the table's wild-type CDR3 ASSPTGGSPSPLH: the enrichment by setting is: under setting [1], 1.13; under setting [2], 0.

As for […] (CDR3 as printed); P9S derived by comparing it with the table's wild-type CDR3 ASSPTGGSPSPLH, the enrichment runs as follows: under setting [1], 0.771; under setting [2], 0.

With […] (CDR3 as printed); S2Q derived by comparing it with the table's wild-type CDR3 ASSPTGGSPSPLH, the enrichment under setting [1] was 0.653 and the enrichment under setting [2] amounted to 0.

In the case of […] (CDR3 as printed); A1D derived by comparing it with the table's wild-type CDR3 ASSPTGGSPSPLH, the enrichment was 0.881 under setting [1] and 0 under setting [2].

Turning to […] (CDR3 as printed); G6V derived by comparing it with the table's wild-type CDR3 ASSPTGGSPSPLH, the enrichment under setting [1] turned out to be 1.33 and the enrichment under setting [2] worked out at 0.

As for […] (CDR3 as printed); H13I derived by comparing it with the table's wild-type CDR3 ASSPTGGSPSPLH, the enrichment by setting is: under setting [1], 0.602; under setting [2], 0.

[…] (CDR3 as printed); G6P derived by comparing it with the table's wild-type CDR3 ASSPTGGSPSPLH: the enrichment runs as follows: under setting [1], 1.09; under setting [2], 0.

For the variant […] (CDR3 as printed); P11W derived by comparing it with the table's wild-type CDR3 ASSPTGGSPSPLH, the enrichment under setting [1] came to 0.701 and the enrichment under setting [2] is 0.

As to […] (CDR3 as printed); S2Y derived by comparing it with the table's wild-type CDR3 ASSPTGGSPSPLH, the enrichment reads like this: under setting [1], 0.769; under setting [2], 0.

Take […] (CDR3 as printed); P4Q derived by comparing it with the table's wild-type CDR3 ASSPTGGSPSPLH: the enrichment came out at 1.2 under setting [1] and 0 under setting [2].

For […] (CDR3 as printed); L12H derived by comparing it with the table's wild-type CDR3 ASSPTGGSPSPLH, the enrichment reads like this: under setting [1], 0.844; under setting [2], 0.

With […] (CDR3 as printed); L12R derived by comparing it with the table's wild-type CDR3 ASSPTGGSPSPLH, the enrichment was 0.619 under setting [1] and 0 under setting [2].

As for […] (CDR3 as printed); L12S derived by comparing it with the table's wild-type CDR3 ASSPTGGSPSPLH, the enrichment is, setting by setting: under setting [1], 0.878; under setting [2], 0.

For the variant […] (CDR3 as printed); L12Q derived by comparing it with the table's wild-type CDR3 ASSPTGGSPSPLH, the enrichment under setting [1] came to 0.615 and the enrichment under setting [2] came out at 0.

Turning to […] (CDR3 as printed); L12K derived by comparing it with the table's wild-type CDR3 ASSPTGGSPSPLH, the enrichment turned out to be 0.756 under setting [1] and 0 under setting [2].

With […] (CDR3 as printed); S10C derived by comparing it with the table's wild-type CDR3 ASSPTGGSPSPLH, the enrichment runs as follows: under setting [1], 0.577; under setting [2], 0.

For […] (CDR3 as printed); S2A derived by comparing it with the table's wild-type CDR3 ASSPTGGSPSPLH, the enrichment is, setting by setting: under setting [1], 0.536; under setting [2], 0.

[…] (CDR3 as printed); S3R derived by comparing it with the table's wild-type CDR3 ASSPTGGSPSPLH: the enrichment is, setting by setting: under setting [1], 0.964; under setting [2], 0.

On to […] (CDR3 as printed); S3P derived by comparing it with the table's wild-type CDR3 ASSPTGGSPSPLH, for which the enrichment amounted to 0.64 under setting [1] and 0 under setting [2].

Regarding […] (CDR3 as printed); G6K derived by comparing it with the table's wild-type CDR3 ASSPTGGSPSPLH, the enrichment runs as follows: under setting [1], 1.4; under setting [2], 0.

For the variant […] (CDR3 as printed); S2E derived by comparing it with the table's wild-type CDR3 ASSPTGGSPSPLH, the enrichment by setting is: under setting [1], 0.993; under setting [2], 0.

As for […] (CDR3 as printed); A1T derived by comparing it with the table's wild-type CDR3 ASSPTGGSPSPLH, the enrichment reads like this: under setting [1], 0.774; under setting [2], 0.

As to […] (CDR3 as printed); G7E derived by comparing it with the table's wild-type CDR3 ASSPTGGSPSPLH, the enrichment under setting [1] was 1.08 and the enrichment under setting [2] came to 0.

As for […] (CDR3 as printed); S8A derived by comparing it with the table's wild-type CDR3 ASSPTGGSPSPLH, the enrichment came to 0.6 under setting [1] and 0 under setting [2].

With […] (CDR3 as printed); P11G derived by comparing it with the table's wild-type CDR3 ASSPTGGSPSPLH, the enrichment under setting [1] is 1.17 and the enrichment under setting [2] was found to be 0.

Consider […] (CDR3 as printed); P4N derived by comparing it with the table's wild-type CDR3 ASSPTGGSPSPLH, for which the enrichment came out at 1.17 under setting [1] and 0 under setting [2].

Consider […] (CDR3 as printed); G7H derived by comparing it with the table's wild-type CDR3 ASSPTGGSPSPLH, for which the enrichment stood at 0.687 under setting [1] and 0 under setting [2].

With […] (CDR3 as printed); S3G derived by comparing it with the table's wild-type CDR3 ASSPTGGSPSPLH, the enrichment by setting is: under setting [1], 0.543; under setting [2], 0.

[…] (CDR3 as printed); A1M derived by comparing it with the table's wild-type CDR3 ASSPTGGSPSPLH: the enrichment runs as follows: under setting [1], 1.12; under setting [2], 0.

On to […] (CDR3 as printed); G6S derived by comparing it with the table's wild-type CDR3 ASSPTGGSPSPLH, for which the enrichment is, setting by setting: under setting [1], 0.376; under setting [2], 0.

For […] (CDR3 as printed); G6F derived by comparing it with the table's wild-type CDR3 ASSPTGGSPSPLH, the enrichment under setting [1] was 1.27 and the enrichment under setting [2] came to 0.

With […] (CDR3 as printed); P9D derived by comparing it with the table's wild-type CDR3 ASSPTGGSPSPLH, the enrichment was found to be 0.994 under setting [1] and 0 under setting [2].

Turning to […] (CDR3 as printed); S10I derived by comparing it with the table's wild-type CDR3 ASSPTGGSPSPLH, the enrichment was found to be 0.982 under setting [1] and 0 under setting [2].

Turning to […] (CDR3 as printed); H13L derived by comparing it with the table's wild-type CDR3 ASSPTGGSPSPLH, the enrichment stood at 0.846 under setting [1] and 0 under setting [2].
